According to the supplement of paper PMC12764529:
± gives the half width of the 95% confidence interval.

Legend:
[1] = folding stability dG unfold from trypsin proteolysis; higher = more stable
Outline: (§1)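 Designed mini-proteins (under 80 residues, no cysteine) in a PA-tagged cDNA display construct were digested with trypsin and chymotrypsin. Each protease was used at 11 concentrations (threefold dilutions) plus a no-protease condition, followed by sequencing. K50 was inferred by Bayesian fitting of sequencing counts, and unfolding free energy was derived against a sequence-predicted unfolded-state K50 and a shared folded-state K50, per protease or combined. Only designs with AlphaFold2 dimer inter-PAE above 15 were kept.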

[2] = folding stability dG unfold from chymotrypsin proteolysis; higher = more stable
Outline: as §1

[3] = folding stability dG unfold (combined trypsin and chymotrypsin); higher = more stable
Outline: as §1

SAGGSAGGSAGGMTLEELKKAIENAKPGETIEIEINGETYRITIIEKDGKLIIKIEKLPPSAGGSAGGSAGG [r7_448_TrROS_Hall]
folding stability dG unfold [1]: 4.36 ± 0.36 kcal/mol | folding stability dG unfold [2]: 4.21 ± 0.25 kcal/mol | folding stability dG unfold [3]: 4.19 ± 0.24 kcal/mol

SAGGSAGGSAGGMTLVIVVETEEQAEALAEELKKKGFEVTVERDEETNLLVVTVKVKPPPSAGGSAGGSAGG [r7_623_TrROS_Hall]
folding stability dG unfold [1]: 4.04 ± 0.25 kcal/mol | folding stability dG unfold [2]: 3.36 ± 0.11 kcal/mol | folding stability dG unfold [3]: 3.66 ± 0.12 kcal/mol

SAGGSAGGSAGGMTPEEIEAALQKAREENSEDEEFTVTVTDPETGEVLTIRIDPNSVTIESAGGSAGGSAGG [r7_45_JUSTAS]
folding stability dG unfold [1]: 1.15 ± 0.034 kcal/mol | folding stability dG unfold [2]: -0.0816 ± 0.11 kcal/mol | folding stability dG unfold [3]: 0.719 ± 0.08 kcal/mol

SAGGSAGGSAGGMTPEEIEALKARPLPDGSPILSIDREGNVYTITTARDPSVRTTVIPAESAGGSAGGSAGG [r7_995_JUSTAS]
folding stability dG unfold [1]: -0.623 ± 0.61 kcal/mol | folding stability dG unfold [2]: -0.853 ± 0.43 kcal/mol | folding stability dG unfold [3]: -0.626 ± 0.54 kcal/mol

SAGGSAGGSAGGMTPIEKEEPHHHMTFTREGDTVSLETFPGSGSIRKTLPSEEEVEKLLSAGGSAGGSAGGS [r10_1104_JUSTAS]
folding stability dG unfold [1]: -0.413 ± 0.071 kcal/mol | folding stability dG unfold [2]: 0.156 ± 0.096 kcal/mol | folding stability dG unfold [3]: 0.00761 ± 0.11 kcal/mol

SAGGSAGGSAGGMTTTTTAPESGDLVTIHPEKGIAVVTSPEGKVTEVPIDPDDYSVEPASAGGSAGGSAGGS [r10_568_JUSTAS]
folding stability dG unfold [1]: 0.343 ± 0.076 kcal/mol | folding stability dG unfold [2]: 1.57 ± 0.079 kcal/mol | folding stability dG unfold [3]: 1.19 ± 0.12 kcal/mol

SAGGSAGGSAGGMTTTTVSRSPDGTITTTTTTYVPTPDGSVVPVTTTTTTTPIDPAALSSAGGSAGGSAGGS [r10_991_JUSTAS]
folding stability dG unfold [1]: 1.45 ± 0.046 kcal/mol | folding stability dG unfold [2]: 1.39 ± 0.017 kcal/mol | folding stability dG unfold [3]: 1.42 ± 0.036 kcal/mol

SAGGSAGGSAGGMTVTVEISIPVTVETSFFKPNKPYFKKKTINKKITIEIPNGEPLSLLSAGGSAGGSAGGS [r10_633_JUSTAS]
folding stability dG unfold [1]: 0.492 ± 0.14 kcal/mol | folding stability dG unfold [2]: -0.0788 ± 0.2 kcal/mol | folding stability dG unfold [3]: 0.249 ± 0.13 kcal/mol

SAGGSAGGSAGGMTVVERTIEVEPDAKVIPLNLPGSNISATVLEYDPETGTLKVKIYVKESAGGSAGGSAGG [r17_198_JUSTAS]
folding stability dG unfold [1]: 0.485 ± 0.05 kcal/mol | folding stability dG unfold [2]: 1.06 ± 0.12 kcal/mol | folding stability dG unfold [3]: 0.945 ± 0.11 kcal/mol

SAGGSAGGSAGGMVELDPENGTLTVLVEVDGELYKVTIKFNPETNEIVSIEVEKLPELEESAGGSAGGSAGG [r7_343_TrROS_Hall]
folding stability dG unfold [1]: 3.03 ± 0.41 kcal/mol | folding stability dG unfold [2]: 3.85 ± 0.31 kcal/mol | folding stability dG unfold [3]: 3.66 ± 0.42 kcal/mol

SAGGSAGGSAGGMVIKITTESGEKIEIEVPEEDEEKVKELVKELEKAGFKVKKVEVFEPSAGGSAGGSAGGS [r10_231_TrROS_Hall]
folding stability dG unfold [1]: 1.6 ± 0.11 kcal/mol | folding stability dG unfold [2]: 1.87 ± 0.073 kcal/mol | folding stability dG unfold [3]: 1.77 ± 0.17 kcal/mol

SAGGSAGGSAGGMVRITVEVDGKTYELVVEGMSLEEIEELLKKPNIKKAKVEPLSEEELKSAGGSAGGSAGG [r7_502_TrROS_Hall]
folding stability dG unfold [1]: 1.24 ± 0.04 kcal/mol | folding stability dG unfold [2]: 2.71 ± 0.09 kcal/mol | folding stability dG unfold [3]: 2.32 ± 0.098 kcal/mol

SAGGSAGGSAGGMVVKIKVDGKTITLSAEELKKNKDLLKELEKKGYKIVSIEVFEPEEESAGGSAGGSAGGS [r10_396_TrROS_Hall]
folding stability dG unfold [1]: 1.57 ± 0.056 kcal/mol | folding stability dG unfold [2]: 1.71 ± 0.027 kcal/mol | folding stability dG unfold [3]: 1.67 ± 0.08 kcal/mol

SAGGSAGGSAGGMYITFDFEVPPNNPEVIEELKSKGIEYKKIEPKPDKVKVKVIIPEKLLSAGGSAGGSAGG [r7_41_JUSTAS]
folding stability dG unfold [1]: -0.638 ± 0.3 kcal/mol | folding stability dG unfold [2]: -0.12 ± 0.27 kcal/mol | folding stability dG unfold [3]: -0.38 ± 0.27 kcal/mol

SAGGSAGGSAGGMYVAVVTRPDGSRLVVETEPGEEIELFTEDGRPLGITAVAPVDEEAFSAGGSAGGSAGGS [r10_422_TrMRF]
folding stability dG unfold [1]: 0.444 ± 0.036 kcal/mol | folding stability dG unfold [2]: -0.334 ± 0.18 kcal/mol | folding stability dG unfold [3]: 0.227 ± 0.09 kcal/mol

SAGGSAGGSAGGNGKKEITIFIKVPPGMPPNEIKDELKDLGLTNIEIERHNNWVMITFRSAGGSAGGSAGGS [r10_868_TrROS]
folding stability dG unfold [1]: 1.15 ± 0.06 kcal/mol | folding stability dG unfold [2]: 1.84 ± 0.099 kcal/mol | folding stability dG unfold [3]: 1.58 ± 0.12 kcal/mol

SAGGSAGGSAGGNIEVLPIPDGYWVIKIPDGRIMVFNPGRGEFEPIPIENVTIEPVRPGDSAGGSAGGSAGG [r7_656_TrROS]
folding stability dG unfold [1]: 0.4 ± 0.021 kcal/mol | folding stability dG unfold [2]: 0.929 ± 0.055 kcal/mol | folding stability dG unfold [3]: 0.783 ± 0.076 kcal/mol

SAGGSAGGSAGGNIKVDDVHHNPNNYRQVKIDLPGGKPIKIWMSMDDPNNVKEIAKEIFSAGGSAGGSAGGS [r10_472_TrROS]
folding stability dG unfold [1]: -0.191 ± 0.048 kcal/mol | folding stability dG unfold [2]: -0.414 ± 0.18 kcal/mol | folding stability dG unfold [3]: -0.22 ± 0.1 kcal/mol

SAGGSAGGSAGGNITVTEDGWIVIEIPYYSPDGGPSPITIVIPIPKMPPEEAEELADKGSAGGSAGGSAGGS [r10_1096_TrROS]
folding stability dG unfold [1]: 1.13 ± 0.14 kcal/mol | folding stability dG unfold [2]: 1.04 ± 0.14 kcal/mol | folding stability dG unfold [3]: 1.11 ± 0.14 kcal/mol

SAGGSAGGSAGGNNLYSTSTTVLSTVPVRPDETVTRPGTGAPVSPSETVALSTTSTAPSLSAGGSAGGSAGG [r11_793_JUSTAS]
folding stability dG unfold [1]: 0.629 ± 0.026 kcal/mol | folding stability dG unfold [2]: -0.729 ± 0.081 kcal/mol | folding stability dG unfold [3]: 0.246 ± 0.054 kcal/mol

SAGGSAGGSAGGPDAAPSAVREYVLVTVPVYAENGTPLGPVTVVAPASVSLAAVADAVFNSAGGSAGGSAGG [r7_109_TrMRF]
folding stability dG unfold [1]: 0.292 ± 0.077 kcal/mol | folding stability dG unfold [2]: 0.368 ± 0.19 kcal/mol | folding stability dG unfold [3]: 0.399 ± 0.11 kcal/mol

SAGGSAGGSAGGPDDWVEVYFIMVSIKPKEVKPDPNGGAEYEFEIKISIFPFWIPPDDISAGGSAGGSAGGS [r10_524_TrROS]
folding stability dG unfold [1]: 3.33 ± 0.26 kcal/mol | folding stability dG unfold [2]: 4.15 ± 0.18 kcal/mol | folding stability dG unfold [3]: 3.94 ± 0.22 kcal/mol

SAGGSAGGSAGGPDWRMISIPITFRFYVMEYDGGKPKKAEPIHEHPIPIMIMFPPDALKSAGGSAGGSAGGS [r10_492_TrROS]
folding stability dG unfold [1]: 1.87 ± 0.032 kcal/mol | folding stability dG unfold [2]: 3.35 ± 0.014 kcal/mol | folding stability dG unfold [3]: 2.91 ± 0.07 kcal/mol

SAGGSAGGSAGGPENDWREVDIKIKFENPEGKPIFDIKIYYMPDGDIMIYFPNGNWIWISAGGSAGGSAGGS [r10_972_TrROS]
folding stability dG unfold [1]: 2.42 ± 0.14 kcal/mol | folding stability dG unfold [2]: 4.14 ± 0.065 kcal/mol | folding stability dG unfold [3]: 3.75 ± 0.17 kcal/mol

SAGGSAGGSAGGPKAIVTEVEVEPNTGKARLKVKVYDPVTGKFSEFEVEVETTGKDLNLSAGGSAGGSAGGS [r10_173_TrMRF]
folding stability dG unfold [1]: 1.08 ± 0.049 kcal/mol | folding stability dG unfold [2]: 2.37 ± 0.074 kcal/mol | folding stability dG unfold [3]: 1.89 ± 0.11 kcal/mol

SAGGSAGGSAGGPKAPGDKAVPATVEVRVTEYAVVPGLGEKLEKLPEKTFKATFVFFNKSAGGSAGGSAGGS [r10_122_TrMRF]
folding stability dG unfold [1]: -0.48 ± 0.26 kcal/mol | folding stability dG unfold [2]: 0.611 ± 0.11 kcal/mol | folding stability dG unfold [3]: 0.286 ± 0.092 kcal/mol

SAGGSAGGSAGGPKLVLKIKTEIKIEKKLEFDPETGELTEEIEIEIKIEIELEPLPEGLSAGGSAGGSAGGS [r10_376_TrROS_Hall]
folding stability dG unfold [1]: 1.32 ± 0.25 kcal/mol | folding stability dG unfold [2]: 3.24 ± 0.35 kcal/mol | folding stability dG unfold [3]: 2.83 ± 0.96 kcal/mol

SAGGSAGGSAGGPKVEVLEVFEFGDLRFVKVYDPETGKVTLLAVTRSDGSKVTFFNPEESAGGSAGGSAGGS [r10_655_TrMRF]
folding stability dG unfold [1]: 1.42 ± 0.056 kcal/mol | folding stability dG unfold [2]: 2.58 ± 0.053 kcal/mol | folding stability dG unfold [3]: 2.23 ± 0.15 kcal/mol

SAGGSAGGSAGGPLKVEVIGSIEGDDRVYVLTRVPGVGGLFVAEYEKPSGKILSVSPVPLSAGGSAGGSAGG [r7_154_TrMRF]
folding stability dG unfold [1]: 0.743 ± 0.065 kcal/mol | folding stability dG unfold [2]: 1.3 ± 0.15 kcal/mol | folding stability dG unfold [3]: 1.07 ± 0.081 kcal/mol

SAGGSAGGSAGGPLPGKPPLRLKLFTLTVRTRTYRKTEDGTWEEVEESEAEITVLVLEPVSAGGSAGGSAGG [r7_506_TrROS_Hall]
folding stability dG unfold [1]: 3.45 ± 0.11 kcal/mol | folding stability dG unfold [2]: 4.99 ± 0.17 kcal/mol | folding stability dG unfold [3]: 4.71 ± 0.14 kcal/mol

SAGGSAGGSAGGPMPVSVSPIGTKVEKTEEPLVVETTTTLSDAEGPPVTTTTTTVTPPSTSAGGSAGGSAGG [r11_129_JUSTAS]
folding stability dG unfold [1]: 1.27 ± 0.08 kcal/mol | folding stability dG unfold [2]: 1.33 ± 0.1 kcal/mol | folding stability dG unfold [3]: 1.35 ± 0.13 kcal/mol

SAGGSAGGSAGGPPSVPITITLIILFPDGYFIVIELTIEVPPDGEIEIKIKILHIFPVKSAGGSAGGSAGGS [r10_1139_TrROS]
folding stability dG unfold [1]: 3.1 ± 0.093 kcal/mol | folding stability dG unfold [2]: 3.76 ± 0.12 kcal/mol | folding stability dG unfold [3]: 3.6 ± 0.12 kcal/mol

SAGGSAGGSAGGPRMTVVDLDPEKGDHLYLVEIPDTNEVVLVSSSELLRLAEAGPVELKGSAGGSAGGSAGG [r7_452_TrMRF]
folding stability dG unfold [1]: -0.107 ± 0.27 kcal/mol | folding stability dG unfold [2]: 0.115 ± 0.062 kcal/mol | folding stability dG unfold [3]: 0.129 ± 0.14 kcal/mol

SAGGSAGGSAGGPRPLRRELRIRRRFRFRVLGLEEGEPRPREFEVEVELVLVETRGPGESAGGSAGGSAGGS [r10_118_TrMRF]
folding stability dG unfold [1]: 2.65 ± 0.082 kcal/mol | folding stability dG unfold [2]: 4.31 ± 0.093 kcal/mol | folding stability dG unfold [3]: 3.84 ± 0.21 kcal/mol

SAGGSAGGSAGGPRTIYIPVKVEPDPNGKWKIDIEEIAKNLPDVKITSITPNYIKITFPASAGGSAGGSAGG [r11_771_TrROS]
folding stability dG unfold [1]: 0.398 ± 0.18 kcal/mol | folding stability dG unfold [2]: 1.38 ± 0.13 kcal/mol | folding stability dG unfold [3]: 1.08 ± 0.16 kcal/mol

SAGGSAGGSAGGPRTLTLTVTLTRTYYDEETGEEVETETETLTLTLRLEPPPPLSPEQLSAGGSAGGSAGGS [r10_50_TrROS_Hall]
folding stability dG unfold [1]: 2.69 ± 0.061 kcal/mol | folding stability dG unfold [2]: 3.19 ± 0.07 kcal/mol | folding stability dG unfold [3]: 2.99 ± 0.17 kcal/mol
